Values quoted from earlier work as cited in PMC3486867.

Target: Asp408 (UniProt position 408, GLLVDDAIVVV)
Assay: chemical modification (inferred from the title of ref 54: site-directed mutagenesis and carbodiimide labeling)

## Multidrug transporter AcrB (not stated (Escherichia coli inferred))
  pKa: 7.4
